# In patent EP4545559A2 (INSTITUTO BUTANTAN, dated 2025):
# Read-outs that look alike come from different tables or passages of the source.
# B1: Monoclonal antibody S.11.1.F4 (antibody, V domains shown)
# VH: QVQLVQSGAEVKKPGSSVRVSCKASAGTFSSYAIRWVRQAPGQGLEWMGTIIPIFGTTNYAQKFQGRVSITADESTNTAYMELSSLRSEDTAVYYCARDLETSPLYGLDVWGQGTTVTVSS
# VL: DIQMTQSPSSLSASVGDRVTITCRASQTISRYLNWYQQKPGKPPKLLIFAASTLHSGVPSRFSGSGSGTEFTLTITSLHPDDFSTYYCQQTYSSPHTFGQGTKLEIK
# notes: also called S.11.1.F4 mAb
# B2: Monoclonal antibody S.11.1.H1 (antibody, V domains shown)
# VH: QVQLVESGGGVVQPGRSLTLSCSASGFPFSTYVMHWVRQAPGKGLEWVAVISSDGSNENYADSVKGRFTVSRDNFGSTLFLQMSTLRPDDTAVYYCARTAGRGYADRGRLDTWGQGTLVTVSS
# VL: not shown
# notes: also called mAb S.11.1.H1
# B3: Monoclonal antibody S.9.4.A9 (antibody, V domains shown)
# VH: QVQLVQSGAEVKKPGASVKVSCKASGYTFISYGISWVRQAPGQELEWMGWISAYNGNTNYAQKLQGRVTMTRDTSTTTAYMELRSLRSDDTAVYYCARVLGGLWFGEPKARHSDYWGQGTLVTVSS
# VL: IQMTQSPSSLSASVGDRVTITCRASQGINNYLAWFQQKPGKAPKSLIYAASSLHSGVPSRFSGSGSGTDFTLTISSLQPEDFATYYCQQYNTYPITFGQGTRLEIK
# notes: also called mAb S.9.4.A9
# B4: Monoclonal antibody S.9.1.C9 (antibody, V domains shown)
# VH: QVQLVESGGGVVQPGRSLGLSCAVSGFTFSNYGMDWVRQAPGKGLEWVAVTSYDGSNKYYADSVKGRFTISRDNSKNTLYLQMNSLRTEDTAVYYCAKHGGGPYCGGGTCYLAYFDYWGQGTLVTVSS
# VL: DIQMTQSPSSLSASVRDRVTITCQASQDISKFLNWYQQKPGKAPKLLIYDASNLETGVPSRFSGSGSGTDFTFTISSLQPEDIATYYCQQYDNLPITFGQGTRLEIKR
# notes: also called mAb S.9.1.C9
# B5: Monoclonal antibody S.9.1.H5 (antibody, V domains shown)
# VH: QVQLVESGGGVVQPGRSLRLSCAASGFTFSRYGMHWVRQAPGKGLEWVALISYDGTNKYYADSVKGRFTISRDNSKSTQYLQMNSLRAEDTAVYFCAKESFGYASGSYYFDYWGQGTLVTVSS
# VL: DIQMTQSPSSLSASVGDRITITCQASQDISNYLNWYQQKPGKAPKLMIYDASNLETGVPSRFSGSGAGTDFTFTISSLQPEDFARYYCQQYGNLPLTFGGGTKVEIK
# notes: also called mAb S.9.1.H5
# B6: Monoclonal antibody S.9.2.B8 (antibody, V domains shown)
# VH: EVQLVETGGGLIQPGGSLRLSCAASGLIVSSNYMTWVRQAPGKGLEWVSVLYSGGTTYYADSVKGRVTISRDNSKNTLYLQVNSLTVADTAVYYCARDLADRGGMDVWGQGTTVTVSS
# VL: SYELTQPPSVSVAPGQTARITCGGNNIGSQSVHWYQQKPGQAPVLVVYDDSDRPSGIPERFSGSKSGNMATLTISRVEAGDEADYYCQVWDSSSDHVVFGGGTKLTVL
# notes: also called mAb S.9.2.B8
# Tests used:
# [1] = target: T1, RBD Gamma (K417T/E484K/N501Y) (SARS-CoV-2, UniProt P0DTC2 319-541); assay: SPR kinetics; * dissociation in 360sec
# T1 construct: domain: RBD
# RBD Delta (L452R/T478K) [2] = target: T2, RBD Delta (L452R/T478K) (SARS-CoV-2, UniProt P0DTC2 319-541); assay: SPR kinetics; * dissociation in 360sec
# T2 construct: domain: RBD
# [3] = target: T3, RBD Omicron (G339D, S371L, S373P, S375F, K417N, N440K, G446S, S477N, T478K, E484A, Q493R, G496S, Q49 (SARS-CoV-2, UniProt P0DTC2 319-541)); assay: SPR kinetics; * dissociation in 360sec
# T3 construct: range 319-541
# [4] = target: T1, RBD Gamma (K417T/E484K/N501Y); assay: SPR, antigen on CM5 sensor
# RBD Delta (L452R/T478K) [5] = target: T2, RBD Delta (L452R/T478K); assay: SPR, antigen on CM5 sensor
# [6] = target: T3, RBD Omicron (G339D, S371L, S373P, …); assay: SPR, antigen on CM5 sensor
# RBD Delta (L452R/T478K) [7] = target: T2, RBD Delta (L452R/T478K); assay: SPR, antigen on CM5 sensor; remark: listed apart in the source
# RBD Delta (L452R/T478K) [8] = target: T2, RBD Delta (L452R/T478K); assay: SPR kinetics; * dissociation in 360sec; remark: listed apart in the source
# RBD Delta (L452R/T478K) [9] = target: T2, RBD Delta (L452R/T478K); assay: SPR kinetics; *** did not dissociate until 36000sec
# [10] = target: T3, RBD Omicron (G339D, S371L, S373P, …); assay: as above
# [11] = target: T1, RBD Gamma (K417T/E484K/N501Y); assay: SPR kinetics; ** dissociation in 36000sec
# [12] = target: T1, RBD Gamma (K417T/E484K/N501Y); assay: SPR, antigen on CM5 sensor; remark: listed apart in the source
# RBD Delta (L452R/T478K) [13] = target: T2, RBD Delta (L452R/T478K); assay: SPR, antigen on CM5 sensor; remark: listed apart in the source
# [14] = target: T3, RBD Omicron (G339D, S371L, S373P, …); assay: SPR, antigen on CM5 sensor; remark: listed apart in the source
# [15] = target: T1, RBD Gamma (K417T/E484K/N501Y); assay: SPR, antigen on CM5 sensor; remark: listed apart in the source
# RBD Delta (L452R/T478K) [16] = target: T2, RBD Delta (L452R/T478K); assay: SPR, antigen on CM5 sensor; remark: listed apart in the source
# [17] = target: T3, RBD Omicron (G339D, S371L, S373P, …); assay: SPR, antigen on CM5 sensor; remark: listed apart in the source
# [18] = target: T1, RBD Gamma (K417T/E484K/N501Y); assay: SPR kinetics; *** did not dissociate until 36000sec
# RBD Delta (L452R/T478K) [19] = target: T2, RBD Delta (L452R/T478K); assay: as above; remark: listed apart in the source
# [20] = target: T3, RBD Omicron (G339D, S371L, S373P, …); assay: SPR kinetics; * dissociation in 360sec; remark: listed apart in the source
# RBD Delta (L452R/T478K) [21] = target: T2, RBD Delta (L452R/T478K); assay: SPR kinetics; *** did not dissociate until 36000sec; remark: listed apart in the source
# [22] = target: T1, RBD Gamma (K417T/E484K/N501Y); assay: SPR kinetics; * dissociation in 360sec; remark: listed apart in the source
# [23] = target: T3, RBD Omicron (G339D, S371L, S373P, …); assay: SPR kinetics; * dissociation in 360sec; remark: listed apart in the source
# [24] = target: T1, RBD Gamma (K417T/E484K/N501Y); assay: SPR, antigen on CM5 sensor; remark: listed apart in the source
# RBD Delta (L452R/T478K) [25] = target: T2, RBD Delta (L452R/T478K); assay: SPR, antigen on CM5 sensor; remark: listed apart in the source
# [26] = target: T3, RBD Omicron (G339D, S371L, S373P, …); assay: SPR, antigen on CM5 sensor; remark: listed apart in the source
# [27] = target: T1, RBD Gamma (K417T/E484K/N501Y); assay: SPR, antigen on CM5 sensor; remark: listed apart in the source
# RBD Delta (L452R/T478K) [28] = target: T2, RBD Delta (L452R/T478K); assay: SPR, antigen on CM5 sensor; remark: listed apart in the source
# [29] = target: T3, RBD Omicron (G339D, S371L, S373P, …); assay: SPR, antigen on CM5 sensor; remark: listed apart in the source
# [30] = target: T1, RBD Gamma (K417T/E484K/N501Y); assay: SPR kinetics; *** did not dissociate until 36000sec; remark: listed apart in the source
# RBD Delta (L452R/T478K) [31] = target: T2, RBD Delta (L452R/T478K); assay: as above; remark: listed apart in the source
# [32] = target: T3, RBD Omicron (G339D, S371L, S373P, …); assay: as above; remark: listed apart in the source
binder,measurement,setting,value
B1,Kd,[1],1.21 nM
same,Kd,RBD Delta (L452R/T478K) [2],1.89 nM
same,Kd,[3],0.584 nM
same,RU,[4],218 RU
same,RU,RBD Delta (L452R/T478K) [5],743 RU
same,RU,[6],153 RU
B2,RU,RBD Delta (L452R/T478K) [7],913 RU
same,Kd,RBD Delta (L452R/T478K) [8],0.548 nM
B3,Kd,RBD Delta (L452R/T478K) [9],~0.0316 nM
same,Kd,[10],~79.6 nM
same,Kd,[11],0.254 nM
same,RU,[12],3 RU
same,RU,RBD Delta (L452R/T478K) [13],4 RU
same,RU,[14],1 RU
B4,RU,[15],294 RU
same,RU,RBD Delta (L452R/T478K) [16],636 RU
same,RU,[17],137 RU
same,Kd,[18],~0.362 nM
same,Kd,RBD Delta (L452R/T478K) [19],~0.455 nM
same,Kd,[20],0.241 nM
B5,Kd,RBD Delta (L452R/T478K) [21],~0.197 nM
same,Kd,[22],1.11 nM
same,Kd,[23],1.83 nM
same,RU,[24],376 RU
same,RU,RBD Delta (L452R/T478K) [25],942 RU
same,RU,[26],175 RU
B6,RU,[27],74 RU
same,RU,RBD Delta (L452R/T478K) [28],163 RU
same,RU,[29],22 RU
same,Kd,[30],~1.17 nM
same,Kd,RBD Delta (L452R/T478K) [31],~0.000836 nM
same,Kd,[32],~1.77 nM
